Measured values published in the supplement of paper PMC11246515.
± gives the standard deviation of the averaged measurements.

Assay: total protein half-life in vivo (active degradation + dilution); higher = more stable protein
[1] = E. coli NCM3722 delta-clpP delta-lon delta-hslV, growth: N-lim chemostat, doubling time 6 h
[2] = E. coli NCM3722 delta-clpP, growth: N-lim chemostat, doubling time 6 h
[3] = E. coli NCM3722 delta-hslV, growth: N-lim chemostat, doubling time 6 h
[4] = E. coli NCM3722 delta-lon, growth: N-lim chemostat, doubling time 6 h
[5] = E. coli NCM3722 delta-smpB, growth: N-lim chemostat, doubling time 6 h
[6] = wild type E. coli NCM3722, growth: C-lim chemostat, doubling time 3 h
[7] = wild type E. coli NCM3722, growth: C-lim chemostat, doubling time 6 h
[8] = wild type E. coli NCM3722, growth: C-lim chemostat, doubling time 12 h
[9] = wild type E. coli NCM3722, growth: N-lim chemostat, doubling time 6 h
[10] = wild type E. coli NCM3722, growth: N-lim chemostat, doubling time 12 h
[11] = wild type E. coli NCM3722, growth: P-lim chemostat, doubling time 6 h
[12] = wild type E. coli NCM3722, growth: P-lim chemostat, doubling time 12 h

Row | Sequence | total protein half-life in vivo [1] [h] | total protein half-life in vivo [2] [h] | total protein half-life in vivo [3] [h] | total protein half-life in vivo [4] [h] | total protein half-life in vivo [5] [h] | total protein half-life in vivo [6] [h] | total protein half-life in vivo [7] [h] | total protein half-life in vivo [8] [h] | total protein half-life in vivo [9] [h] | total protein half-life in vivo [10] [h] | total protein half-life in vivo [11] [h] | total protein half-life in vivo [12] [h]
1 | MIEKLRNIAIIAHVDHGKTTLVDKLLQQSGTFDSRAETQERVMDSNDLEKERGITILAKNTAIKWNDYRINIVDTPGHADFGGEVERVMSMVDSVLLVVDAFDGPMPQTRFVTKKAFAYGLKPIVVINKVDRPGARPDWVVDQVFDLFVNLDATDEQLDFPIVYASALNGIAGLDHEDMAEDMTPLYQAIVDHVPAPDVDLDGPFQMQISQLDYNSYVGVIGIGRIKRGKVKPNQQVTIIDSEGKTRNAKVGKVLGHLGLERIETDLAEAGDIVAITGLGELNISDTVCDTQNVEALPALSVDEPTVSMFFCVNTSPFCGKEGKFVTSRQILDRLNKELVHNVALRVEETEDADAFRVSGRGELHLSVLIENMRREGFELAVSRPKVIFREIDGRKQEPYENVTLDVEEQHQGSVMQALGERKGDLKNMNPDGKGRVRLDYVIPSRGLIGFRSEFMTMTSGTGLLYSTFSHYDDVRPGEVGQRQNGVLISNGQGKAVAFALFGLQDRGKLFLGHGAEVYEGQIIGIHSRSNDLTVNCLTGKKLTNMRASGTDEAVVLVPPIRMTLEQALEFIDDDELVEVTPTSIRIRKRHLTENDRRRANRAPKDD | 5.32 ± 0.47 | 4.79 ± 0.39 | 4.54 ± 0.41 | 5.61 ± 0.38 | 4.62 ± 0.21 | 2.899 ± 0.022 | 5.8018 ± 0.005 | 9.75 ± 0.82 | 4.387 ± 0.029 | 6.89 ± 0.16 | 5.58 ± 0.15 | 10.9 ± 0.83
2 | MIERGKFRSLTLINWNGFFARTFDLDELVTTLSGGNGAGKSTTMAAFVTALIPDLTLLHFRNTTEAGATSGSRDKGLHGKLKAGVCYSMLDTINSRHQRVVVGVRLQQVAGRDRKVDIKPFAIQGLPMSVQPTQLVTETLNERQARVLPLNELKDKLEAMEGVQFKQFNSITDYHSLMFDLGIIARRLRSASDRSKFYRLIEASLYGGISSAITRSLRDYLLPENSGVRKAFQDMEAALRENRMTLEAIRVTQSDRDLFKHLISEATNYVAADYMRHANERRVHLDKALEFRRELHTSRQQLAAEQYKHVDMARELAEHNGAEGDLEADYQAASDHLNLVQTALRQQEKIERYEADLDELQIRLEEQNEVVAEAIERQQENEARAEAAELEVDELKSQLADYQQALDVQQTRAIQYNQAIAALNRAKELCHLPDLTADCAAEWLETFQAKELEATEKMLSLEQKMSMAQTAHSQFEQAYQLVVAINGPLARNEAWDVARELLREGVDQRHLAEQVQPLRMRLSELEQRLREQQEAERLLADFCKRQGKNFDIDELEALHQELEARIASLSDSVSNAREERMALRQEQEQLQSRIQSLMQRAPVWLAAQNSLNQLSEQCGEEFTSSQDVTEYLQQLLEREREAIVERDEVGARKNAVDEEIERLSQPGGSEDQRLNALAERFGGVLLSEIYDDVSLEDAPYFSALYGPSRHAIVVPDLSQVTEHLEGLTDCPEDLYLIEGDPQSFDDSVFSVDELEKAVVVKIADRQWRYSRFPEVPLFGRAARESRIESLHAEREVLSERFATLSFDVQKTQRLHQAFSRFIGSHLAVAFESDPEAEIRQLNSRRVELERALSNHENDNQQQRIQFEQAKEGVTALNRILPRLNLLADDSLADRVDEIRERLDEAQEAARFVQQFGNQLAKLEPIVSVLQSDPEQFEQLKEDYAYSQQMQRDARQQAFALTEVVQRRAHFSYSDSAEMLSGNSDLNEKLRERLEQAEAERTRAREALRGHAAQLSQYNQVLASLKSSYDTKKELLNDLQRELQDIGVRADSGAEERARIRRDELHAQLSNNRSRRNQLEKALTFCEAEMDNLTRKLRKLERDYFEMREQVVTAKAGWCAVMRMVKDNGVERRLHRRELAYLSADDLRSMSDKALGALRLAVADNEHLRDVLRMSEDPKRPERKIQFFVAVYQHLRERIRQDIIRTDDPVEAIEQMEIELSRLTEELTSREQKLAISSRSVANIIRKTIQREQNRIRMLNQGLQNVSFGQVNSVRLNVNVRETHAMLLDVLSEQHEQHQDLFNSNRLTFSEALAKLYQRLNPQIDMGQRTPQTIGEELLDYRNYLEMEVEVNRGSDGWLRAESGALSTGEAIGTGMSILVMVVQSWEDESRRLRGKDISPCRLLFLDEAARLDARSIATLFELCERLQMQLIIAAPENISPEKGTTYKLVRKVFQNTEHVHVVGLRGFAPQLPETLPGTDEAPSQAS | 6.61 ± 0.52 | 6.45 ± 0.38 | 4.36 ± 0.13 | 4.16 ± 0.34 | 4.2 ± 0.079 | 2.91 ± 0.16 | 5.16 ± 0.064 | 8.24 ± 0.095 | 4.374 ± 0.017 | 5.78 ± 0.3 | 4.74 ± 0.084 | 6.65 ± 0.25
3 | MIETLLEVRNLSKTFRYRTGWFRRQTVEAVKPLSFTLREGQTLAIIGENGSGKSTLAKMLAGMIEPTSGELLIDDHPLHFGDYSFRSQRIRMIFQDPSTSLNPRQRISQILDFPLRLNTDLEPEQRRKQIIETMRMVGLLPDHVSYYPHMLAPGQKQRLGLARALILRPKVIIADEALASLDMSMRSQLINLMLELQEKQGISYIYVTQHIGMMKHISDQVLVMHQGEVVERGSTADVLASPLHELTKRLIAGHFGEALTADAWRKDR [P0AAH8] | 5.82 ± 0.14 | 5.86 ± 0.16 | 5.99 ± 0.16 | 5.26 ± 1.3 | 5.78 ± 0.3 | 2.97 ± 0.16 | 5.78 ± 0.22 | 11.5 ± 2.9 | 5.53 ± 0.077 | 12.1 ± 1.1 | 6.03 ± 0.55 | 12.51 ± 0.086
4 | MIFTSSCCDNLSIDEIIERAEKGDCEAQYIVGFYYNRDSAIDSPDDEKAFYWLKLAAEQGHCEAQYSLGQKYTEDKSRHKDNEQAIFWLKKAALQGHTFASNALGWTLDRGEAPNYKEAVVWYQIAAESGMSYAQNNLGWMYRNGNGVAKDYALAFFWYKQAALQGHSDAQNNLADLYEDGKGVAQNKTLAAFWYLKSAQQGNRHAQFQIAWDYNAGEGVDQDYKQAMYWYLKAAAQGSVGAYVNIGYMYKHGQGVEKDYQAAFEWFTKAAECNDATAWYNLAIMYHYGEGRPVDLRQALDLYRKVQSSGTRDVSQEIRETEDLL | 6.2 | – | – | – | – | – | – | – | – | – | – | –
5 | MIGRLRGIIIEKQPPLVLIEVGGVGYEVHMPMTCFYELPEAGQEAIVFTHFVVREDAQLLYGFNNKQERTLFKELIKTNGVGPKLALAILSGMSAQQFVNAVEREEVGALVKLPGIGKKTAERLIVEMKDRFKGLHGDLFTPAADLVLTSPASPATDDAEQEAVAALVALGYKPQEASRMVSKIARPDASSETLIREALRAAL [P0A809] | 5.02 ± 0.64 | 4.88 ± 0.9 | 5.46 ± 0.47 | 4.88 ± 0.49 | 5.59 ± 0.069 | 2.99 ± 0.28 | 5.04 ± 0.43 | 10.3 ± 3.1 | 4.95 ± 0.26 | 7.6 ± 0.43 | 3.73 ± 0.86 | 10.13 ± 0.068
